± gives the standard deviation of the averaged measurements.
B1: library; a variant is named by its letters at N, in order (parent)
chain: GCUGUCACCGGAAUACCAGCAUCGUCUUGAUGCCCUUGGAAGUCCGGUCUGAUGAGUCCNNNNNGGACGAAACAGC

Experiments:
theophylline [1] = variants of: B1; assay: FACS-Seq fitted mean relative fluorescence mCherry/BFP without ligand (log10 relative fluorescence); higher = higher reporter protein expression; conditions: HEK293T, ligand present: no
Protocol: (§1)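 Hammerhead (sTRSV) ribozyme switch libraries with a ligand aptamer grafted on stem I and a randomized N4-6 loop II, cloned into the 3' UTR of mCherry and transiently transfected into HEK293T cells; RNA-Seq 72 h post transfection with ligand added 1 h before transfection; RNA read count / plasmid DNA read count normalized to the non-cleaving sTRSVctl (x100), log10; sequences with >100 DNA reads. FACS-Seq: lentiviral library sorted into 6 bins after 48 h ligand, log-normal fit mean of mCherry/BFP scaled to controls. Printed sequences are partial switch sequences.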

theophylline [2] = variants of: B1; assay: normalized RNA/DNA level with ligand (relative to sTRSVctl = 100) (log10 (% of sTRSVctl)); higher = less ribozyme self-cleavage, higher mRNA level; conditions: ligand concentration (+) RNA-Seq: 5 mM, HEK293T, reporter: mCherry (pCS4076), ligand present: yes
Protocol: as §1

theophylline [3] = variants of: B1; assay: normalized RNA/DNA level without ligand (relative to sTRSVctl = 100) (log10 (% of sTRSVctl)); higher = less ribozyme self-cleavage, higher mRNA level; conditions: HEK293T, reporter: mCherry (pCS4076), ligand present: no
Protocol: as §1

theophylline [4] = variants of: B1; assay: FACS-Seq fitted mean relative fluorescence mCherry/BFP with ligand (log10 relative fluorescence); ligand concentration (+) FACS-Seq: 1 mM; higher = higher reporter protein expression; conditions: HEK293T, ligand present: yes
Protocol: as §1

Variant | FACS-Seq fitted mean (log10) (theophylline [1]) | normalized RNA/DNA level with ligand (log10) (theophylline [2]) | normalized RNA/DNA level without ligand (log10) (theophylline [3]) | FACS-Seq fitted mean (log10) (theophylline [4])
GCUGUCACCGGAAUACCAGCAUCGUCUUGAUGCCCUUGGAAGUCCGGUCUGAUGAGUCCCAAAAGGACGAAACAGC [CAAAA] | 0.173 ± 0.019 | 1.95 ± 0.029 | 1.31 ± 0.062 | 0.67 ± 0.071
GCUGUCACCGGAAUACCAGCAUCGUCUUGAUGCCCUUGGAAGUCCGGUCUGAUGAGUCCCAAACGGACGAAACAGC [CAAAC] | 0.851 ± 0.024 | 1.92 ± 0.024 | 1.82 ± 0.054 | 0.833 ± 0.033
GCUGUCACCGGAAUACCAGCAUCGUCUUGAUGCCCUUGGAAGUCCGGUCUGAUGAGUCCGAAACGGACGAAACAGC [GAAAC] | 0.594 ± 0.018 | 1.97 ± 0.025 | 1.77 ± 0.072 | 0.621 ± 0.075
GCUGUCACCGGAAUACCAGCAUCGUCUUGAUGCCCUUGGAAGUCCGGUCUGAUGAGUCCGAAAAGGACGAAACAGC [GAAAA] | 0.381 ± 0.0065 | 1.96 ± 0.033 | 1.3 ± 0.14 | 0.809 ± 0.014
GCUGUCACCGGAAUACCAGCAUCGUCUUGAUGCCCUUGGAAGUCCGGUCUGAUGAGUCCGAAAGGGACGAAACAGC [GAAAG] | 1.046 ± 0.0068 | 1.96 ± 0.022 | 1.66 ± 0.044 | 1.08 ± 0.14
GCUGUCACCGGAAUACCAGCAUCGUCUUGAUGCCCUUGGAAGUCCGGUCUGAUGAGUCCAAAAAGGACGAAACAGC [AAAAA] | -0.362 ± 0.072 | 1.85 ± 0.075 | 1.11 ± 0.061 | 0.356 ± 0.066
GCUGUCACCGGAAUACCAGCAUCGUCUUGAUGCCCUUGGAAGUCCGGUCUGAUGAGUCCAAAACGGACGAAACAGC [AAAAC] | 0.834 ± 0.057 | 1.944 ± 0.014 | 1.77 ± 0.066 | 0.873 ± 0.075
GCUGUCACCGGAAUACCAGCAUCGUCUUGAUGCCCUUGGAAGUCCGGUCUGAUGAGUCCUAAACGGACGAAACAGC [UAAAC] | 0.86 ± 0.034 | 1.978 ± 0.013 | 1.91 ± 0.096 | 0.924 ± 0.042
GCUGUCACCGGAAUACCAGCAUCGUCUUGAUGCCCUUGGAAGUCCGGUCUGAUGAGUCCUAAAAGGACGAAACAGC [UAAAA] | 0.164 ± 0.019 | 1.99 ± 0.029 | 1.206 ± 0.0047 | 0.589 ± 0.038

— the supplement of paper PMC6757056
